Publication PMC3227653 (2011)

B1: pepsin-treated A5.1m (VHH)
VHH: QVKLEESGGGLVQAGGSLRLSCAASGRTFSMYRMGWFRQAPGKEREFVCVITRNGSSTYYADSVKGRFTCSRDNAKNTVYLQMNSLKPEDTALYYCAATSGSSYLDAAHVYDYWGQGTQVTVSS
B2: pepsin-treated A4.2m (VHH)
VHH: QVKLEESGGGLVQAGGSLRLSCAASGRTFNTLSMGWFRQAPGKEREFVCAVSRSGGSTYYADSVKGRFTCSRDNAKNTVYLQMNSLKPEDTAVYYCAAAATKSNTTAYRLSFDYWGQGTQVTVSS
B3: pepsin-treated A26.8m (VHH)
VHH: QVKLEESGGGLVQAGGSLRLSCAASERTFSRYPVAWFRQAPGAEREFVCVISSTGTSTYYADSVKGRFTCSRDNAKVTVYLQMNNLKREDTAVYFCAVNSQRTRLQDPNEYDYWGQGTQVTVSS

target: Clostridium difficile toxin A (C. difficile, UniProt P16154 1-2710); assay: SPR

Binder | koff
B1 | 0.013 s⁻¹
B2 | 0.016 s⁻¹
B3 | 0.019 s⁻¹
